Results as given in the supplement of paper PMC10567573.

B1: PKD2L1 (parent)
chain: YSGGGYYLDLPGSRQGSAEALRAL

Variants of: B1
Assay: protein stability index of a GFP-peptide fusion (GPS, HEK-293T) (PSI 1-6); higher = more stable
Settings: c terminus: a fixed tail appended
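Further: lentivirally expressed fusions sorted by FACS into six bins by GFP to DsRed ratio, PSI derived from sequencing read proportions per bin multiplied by bin number.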

First: YSGGGNYLDLPGSRQGSAEALRAL [Y6N]
Second: YSGGGAYLDLPGSRQGSAEALRAL [Y6A]
The protein stability index of the first is higher: 2.83 for the first, 2.27 for the second.

Compared with YSGGGLYLDLPGSRQGSAEALRAL [Y6L], YSGGGVYLDLPGSRQGSAEALRAL [Y6V] is higher in protein stability index: 1.59 for the first, 2.24 for the second.

Going from YSGGGIYLDLPGSRQGSAEALRAL [Y6I] to YSGGGFYLDLPGSRQGSAEALRAL [Y6F], the protein stability index rises from 1.79 to 2.25.

Going from YSGGGHYLDLPGSRQGSAEALRAL [Y6H] to YSGGGDYLDLPGSRQGSAEALRAL [Y6D], the protein stability index rises from 2.16 to 2.57.

First: YSGGGQYLDLPGSRQGSAEALRAL [Y6Q]
Second: YSGGGYYLELPGSRQGSAEALRAL [D9E]
The protein stability index of the first is higher: 2.83 for the first, 2.01 for the second.

Compared with YSGGGYYLPLPGSRQGSAEALRAL [D9P], YSGGGYYLKLPGSRQGSAEALRAL [D9K] is higher in protein stability index: 1.66 for the first, 2.59 for the second.

Compared with YSGGGYYLLLPGSRQGSAEALRAL [D9L], YSGGGYYLALPGSRQGSAEALRAL [D9A] is lower in protein stability index: 4.93 for the first, 4.81 for the second.

Going from YSGGGYYLHLPGSRQGSAEALRAL [D9H] to YSGGGYYLMLPGSRQGSAEALRAL [D9M], the protein stability index rises from 1.95 to 3.33.

Compared with YSGGGYYLNLPGSRQGSAEALRAL [D9N], YSGGGYYLFLPGSRQGSAEALRAL [D9F] is higher in protein stability index: 2.46 for the first, 3.62 for the second.

Going from YSGGGYYLILPGSRQGSAEALRAL [D9I] to YSGGGYYLGLPGSRQGSAEALRAL [D9G], the protein stability index falls from 3.81 to 3.74.

Going from YSGGGYYRDLPGSRQGSAEALRAL [L8R] to YSGGGYYVDLPGSRQGSAEALRAL [L8V], the protein stability index rises from 2.08 to 2.45.

First: YSGGGYYNDLPGSRQGSAEALRAL [L8N]
Second: YSGGGYYFDLPGSRQGSAEALRAL [L8F]
The protein stability index of the first is lower: 1.73 for the first, 2.66 for the second.

Compared with YSGGGYYGDLPGSRQGSAEALRAL [L8G], YSGGGYYSDLPGSRQGSAEALRAL [L8S] is lower in protein stability index: 1.67 for the first, 1.37 for the second.

Compared with YSGGGYYWDLPGSRQGSAEALRAL [L8W], YSGGGYYQDLPGSRQGSAEALRAL [L8Q] is lower in protein stability index: 2.72 for the first, 2.26 for the second.

First: YSGGGYYCDLPGSRQGSAEALRAL [L8C]
Second: YSGGGYYDDLPGSRQGSAEALRAL [L8D]
The protein stability index of the first is lower: 1.69 for the first, 1.99 for the second.

Going from YSGGGYYKDLPGSRQGSAEALRAL [L8K] to YSGGGYYEDLPGSRQGSAEALRAL [L8E], the protein stability index rises from 1.42 to 2.9.

First: YSGGGYYADLPGSRQGSAEALRAL [L8A]
Second: YSGGGYYTDLPGSRQGSAEALRAL [L8T]
The protein stability index of the first is lower: 2.12 for the first, 3.55 for the second.

Going from YSGGGYYMDLPGSRQGSAEALRAL [L8M] to YSGGGYYPDLPGSRQGSAEALRAL [L8P], the protein stability index falls from 3.21 to 1.99.

Compared with YSGGGYYYDLPGSRQGSAEALRAL [L8Y], YSGGGYYIDLPGSRQGSAEALRAL [L8I] is higher in protein stability index: 2.03 for the first, 2.77 for the second.

Going from YSGGGYYHDLPGSRQGSAEALRAL [L8H] to YRGGGYYLDLPGSRQGSAEALRAL [S2R], the protein stability index falls from 4.24 to 2.51.

Going from YMGGGYYLDLPGSRQGSAEALRAL [S2M] to YKGGGYYLDLPGSRQGSAEALRAL [S2K], the protein stability index rises from 1.92 to 2.22.

Compared with YFGGGYYLDLPGSRQGSAEALRAL [S2F], YPGGGYYLDLPGSRQGSAEALRAL [S2P] is higher in protein stability index: 1.93 for the first, 3.27 for the second.

First: YTGGGYYLDLPGSRQGSAEALRAL [S2T]
Second: YWGGGYYLDLPGSRQGSAEALRAL [S2W]
The protein stability index of the first is higher: 2.59 for the first, 2.13 for the second.

Going from YLGGGYYLDLPGSRQGSAEALRAL [S2L] to YQGGGYYLDLPGSRQGSAEALRAL [S2Q], the protein stability index rises from 1.4 to 2.3.

First: YEGGGYYLDLPGSRQGSAEALRAL [S2E]
Second: YIGGGYYLDLPGSRQGSAEALRAL [S2I]
The protein stability index of the first is higher: 3 for the first, 2.34 for the second.

First: YHGGGYYLDLPGSRQGSAEALRAL [S2H]
Second: YYGGGYYLDLPGSRQGSAEALRAL [S2Y]
The protein stability index of the first is higher: 2.88 for the first, 2.19 for the second.

First: YDGGGYYLDLPGSRQGSAEALRAL [S2D]
Second: YNGGGYYLDLPGSRQGSAEALRAL [S2N]
The protein stability index of the first is higher: 2.45 for the first, 1.84 for the second.

Compared with YGGGGYYLDLPGSRQGSAEALRAL [S2G], YVGGGYYLDLPGSRQGSAEALRAL [S2V] is higher in protein stability index: 1.45 for the first, 3.97 for the second.

Compared with YSGGWYYLDLPGSRQGSAEALRAL [G5W], YSGGTYYLDLPGSRQGSAEALRAL [G5T] is lower in protein stability index: 3.35 for the first, 1.96 for the second.

Compared with YSGGHYYLDLPGSRQGSAEALRAL [G5H], YSGGPYYLDLPGSRQGSAEALRAL [G5P] is higher in protein stability index: 2.28 for the first, 2.41 for the second.

Compared with YSGGKYYLDLPGSRQGSAEALRAL [G5K], YSGGMYYLDLPGSRQGSAEALRAL [G5M] is higher in protein stability index: 2.65 for the first, 2.68 for the second.

Compared with YSGGAYYLDLPGSRQGSAEALRAL [G5A], YSGGDYYLDLPGSRQGSAEALRAL [G5D] is higher in protein stability index: 1.14 for the first, 2.28 for the second.

First: YSGGRYYLDLPGSRQGSAEALRAL [G5R]
Second: YSGGVYYLDLPGSRQGSAEALRAL [G5V]
The protein stability index of the first is higher: 2.67 for the first, 2.1 for the second.

Going from YSGGLYYLDLPGSRQGSAEALRAL [G5L] to YSGGYYYLDLPGSRQGSAEALRAL [G5Y], the protein stability index rises from 1.6 to 1.71.

First: YSGGCYYLDLPGSRQGSAEALRAL [G5C]
Second: YSGGNYYLDLPGSRQGSAEALRAL [G5N]
The protein stability index of the first is lower: 1.25 for the first, 1.76 for the second.

First: YSGGEYYLDLPGSRQGSAEALRAL [G5E]
Second: YSGGSYYLDLPGSRQGSAEALRAL [G5S]
The protein stability index of the first is higher: 2.06 for the first, 1.83 for the second.

Going from YSGGIYYLDLPGSRQGSAEALRAL [G5I] to YSGGFYYLDLPGSRQGSAEALRAL [G5F], the protein stability index rises from 1.33 to 2.17.

Going from YSGGQYYLDLPGSRQGSAEALRAL [G5Q] to YSGSGYYLDLPGSRQGSAEALRAL [G4S], the protein stability index rises from 1.39 to 2.08.

First: YSGMGYYLDLPGSRQGSAEALRAL [G4M]
Second: YSGHGYYLDLPGSRQGSAEALRAL [G4H]
The protein stability index of the first is lower: 2.35 for the first, 2.45 for the second.

Compared with YSGPGYYLDLPGSRQGSAEALRAL [G4P], YSGNGYYLDLPGSRQGSAEALRAL [G4N] is lower in protein stability index: 2.03 for the first, 1.67 for the second.

First: YSGQGYYLDLPGSRQGSAEALRAL [G4Q]
Second: YSGCGYYLDLPGSRQGSAEALRAL [G4C]
The protein stability index of the first is higher: 2.23 for the first, 1.95 for the second.

Going from YSGIGYYLDLPGSRQGSAEALRAL [G4I] to YSGLGYYLDLPGSRQGSAEALRAL [G4L], the protein stability index rises from 1.78 to 2.15.

First: YSGDGYYLDLPGSRQGSAEALRAL [G4D]
Second: YSGAGYYLDLPGSRQGSAEALRAL [G4A]
The protein stability index of the first is higher: 2.86 for the first, 1.56 for the second.

Compared with YSGEGYYLDLPGSRQGSAEALRAL [G4E], YSGKGYYLDLPGSRQGSAEALRAL [G4K] is higher in protein stability index: 1.8 for the first, 2.37 for the second.

Going from YSGFGYYLDLPGSRQGSAEALRAL [G4F] to YSGRGYYLDLPGSRQGSAEALRAL [G4R], the protein stability index falls from 2.49 to 2.48.

Compared with YSGTGYYLDLPGSRQGSAEALRAL [G4T], YSGWGYYLDLPGSRQGSAEALRAL [G4W] is lower in protein stability index: 2.53 for the first, 2.44 for the second.

First: YSGVGYYLDLPGSRQGSAEALRAL [G4V]
Second: YSGYGYYLDLPGSRQGSAEALRAL [G4Y]
The protein stability index of the first is higher: 2.22 for the first, 1.65 for the second.
